Source: patent publication US20230250148A1 (published 2023)
Like-named read-outs stand apart in the source and are kept apart here.

Legend:
[1] = biological target: T1, biotinylated recombinant human Fc(gamma)RI (human, UniProt P12314 16-288, biotinylated, site not stated); assay: ELISA, fusion protein coated, biotinylated rhFc(gamma)RI in solution
T1 construct: Bought reagent; construct not described; also called rhFc(gamma)RI; Fc(gamma) receptor I
Method: The binding of insulin-Fc fusion proteins to the Fc(gamma)RI at pH 7.4 is conducted using an ELISA assay as follows using human Fc(gamma)RI (i.e., rhFc(gamma)RI). Insulin-Fc fusion proteins are diluted to 10 µg/mL in sodium bicarbonate buffer at pH 9.6 and coated on Maxisorp (Nunc) microtiter plates overnight at 4° C., after which the microplate strips are washed 5 times with PBST (PBS/0.05% Tween-20) buffer and blocked with Superblock blocking reagent (ThermoFisher). Serial dilutions of biotinylated rhFc(gamma)RI (recombinant human Fc(gamma)RI; R&D Systems) are prepared in PBST/10% Superblock buffer from 3000 ng/mL to 4.1 ng/mL and loaded at 100 µL/well onto the microplate strips coated with insulin-Fc fusion protein. The microtiter plate is incubated for 1 hour at room temperature after which time the microplate strips are washed 5 times with PBST and then loaded with 100 µL/well of streptavidin-HRP diluted 1:10000 in PBST/10% Superblock buffer. After incubating for 45 min, the microplate strips are washed again 5 times with PBST. TMB is added to reveal the bound Fc(gamma)RI proteins and is stopped with ELISA stop reagent (Boston Bioproducts). The plate is read in an ELISA plate reader at 450 nm, and the OD450 values (proportional to the binding of rhFc(gamma)RI to insulin-Fc protein) are plotted against log concentrations of rhFc(gamma)RI added to each well to generate binding curves using GraphPad Prism software. For groupings of compounds with somewhat similar curves, the OD450 at one of the higher concentrations, for instance at rhFc(gamma)RI concentrations of 3000 ng/mL, can be used to identify differences between coated insulin-Fc fusion protein compounds. […]

[2] = biological target: T2, human insulin receptor (IR) on human IM-9 cells (human, UniProt P06213 28-1382); assay: competition with biotinylated RHI on IM-9 cells, flow cytometry, 4 C
T2 construct: whole, on cells; also called human IR
Method: (§1) 40 µL of an IM-9 cell suspension (8×10⁶ cells/mL) was then added to each well by multichannel pipette, mixed again gently and incubated on ice for 30 min to allow competitive binding on the IR on IM-9 cells. Cells were then washed twice with 275µL of ice-cold FACS wash buffer (HBSS/2mM EDTA/0.1% Na-azide + 0.5% horse serum) by centrifuging the V-bottom plate at 3000 rpm for 3 min and aspirating the supernatant. Cells were then resuspended in 40µL of FACS staining medium containing 1:100 diluted Streptavidin-PE (Life Technologies) for 20 min on ice. Cells were then washed once with 275 µL of ice-cold FACS buffer and finally fixed with 3% paraformaldehyde for 10 min at room temp. Cells were then washed once with 275 µL of ice-cold FACS buffer and resuspended in 250µl of FACS buffer for analysis.
The lack of in vivo potency for the insulin-Fc fusion protein of SEQ ID NO: 43 correlates with its high IC50 (shown in Table 9 below) as measured by the insulin receptor binding assay according to the method of Example 12.

[3] = biological target: T2, human insulin receptor (IR) on human …; assay: as above; remark: listed apart in the source
Method: as §1
(§2) The insulin-Fc fusion proteins were manufactured in HEK293 cells according to Example 1 and purified using a Protein A column according to Example 4. Their structures were confirmed according to Example 6 by non-reducing and reducing CE-SDS, and the sequences were further identified by LC-MS with glycan removal according to Example 8. Their %homodimer content was measured by size-exclusion chromatography according to Example 10, and their insulin receptor binding affinities were measured according to Example 12.

[4] = biological target: T2, human insulin receptor (IR) on human …; assay: as above; remark: listed apart in the source
Method: as §1, §2

T2 sequence (P06213 28-1382): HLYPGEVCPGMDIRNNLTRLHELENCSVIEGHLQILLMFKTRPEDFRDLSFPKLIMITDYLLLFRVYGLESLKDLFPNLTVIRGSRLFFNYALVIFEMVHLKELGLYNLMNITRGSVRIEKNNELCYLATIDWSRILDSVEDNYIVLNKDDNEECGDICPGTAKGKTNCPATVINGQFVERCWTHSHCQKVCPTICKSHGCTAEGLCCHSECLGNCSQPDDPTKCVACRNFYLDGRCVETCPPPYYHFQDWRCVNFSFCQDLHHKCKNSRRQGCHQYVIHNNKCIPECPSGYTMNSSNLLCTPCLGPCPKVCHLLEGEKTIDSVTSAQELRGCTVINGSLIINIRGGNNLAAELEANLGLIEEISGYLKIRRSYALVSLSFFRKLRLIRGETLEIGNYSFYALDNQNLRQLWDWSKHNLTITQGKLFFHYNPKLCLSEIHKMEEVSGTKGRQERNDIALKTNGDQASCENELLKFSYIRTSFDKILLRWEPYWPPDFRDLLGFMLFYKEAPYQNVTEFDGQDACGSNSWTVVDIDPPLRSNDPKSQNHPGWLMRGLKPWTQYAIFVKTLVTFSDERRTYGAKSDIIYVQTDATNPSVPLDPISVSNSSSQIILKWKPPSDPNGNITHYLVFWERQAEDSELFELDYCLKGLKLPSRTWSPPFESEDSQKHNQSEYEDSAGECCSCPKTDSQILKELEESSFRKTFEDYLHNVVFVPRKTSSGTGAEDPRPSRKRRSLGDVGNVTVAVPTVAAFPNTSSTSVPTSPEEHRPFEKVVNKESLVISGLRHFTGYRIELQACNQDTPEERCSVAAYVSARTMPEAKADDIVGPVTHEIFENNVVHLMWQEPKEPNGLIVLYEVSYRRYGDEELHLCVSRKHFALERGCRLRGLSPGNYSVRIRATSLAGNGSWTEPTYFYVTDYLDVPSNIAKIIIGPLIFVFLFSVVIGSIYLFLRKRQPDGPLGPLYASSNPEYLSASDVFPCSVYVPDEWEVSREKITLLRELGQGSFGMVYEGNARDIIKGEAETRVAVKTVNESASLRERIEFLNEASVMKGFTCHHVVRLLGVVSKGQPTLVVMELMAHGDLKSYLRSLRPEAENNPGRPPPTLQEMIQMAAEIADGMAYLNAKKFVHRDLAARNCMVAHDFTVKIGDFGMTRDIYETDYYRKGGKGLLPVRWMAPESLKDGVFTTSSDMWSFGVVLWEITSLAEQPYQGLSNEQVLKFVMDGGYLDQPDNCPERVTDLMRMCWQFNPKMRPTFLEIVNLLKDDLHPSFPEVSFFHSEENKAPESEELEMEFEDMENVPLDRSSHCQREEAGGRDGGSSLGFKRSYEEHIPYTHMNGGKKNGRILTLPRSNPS
T1 sequence (P12314 16-288 limits assumed): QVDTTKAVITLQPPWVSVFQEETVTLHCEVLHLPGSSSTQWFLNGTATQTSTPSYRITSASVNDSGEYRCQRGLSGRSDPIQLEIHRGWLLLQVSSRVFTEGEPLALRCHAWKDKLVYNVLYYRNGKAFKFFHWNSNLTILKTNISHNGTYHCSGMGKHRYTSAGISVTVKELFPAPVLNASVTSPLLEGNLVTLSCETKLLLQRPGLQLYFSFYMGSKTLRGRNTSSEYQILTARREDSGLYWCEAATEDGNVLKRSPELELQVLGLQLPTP

B1: insulin-Fc fusion protein of SEQ ID NO: 42 (Fc fusion)
chain: FVNQHLCGSDLVEALALVCGERGFFYTDPTGGGPRRGIVEQCCHSICSLYQLENYCNGGGGAGGGGDCPKCPAPEMLGGPSVFIFPPKPKDTLLIARTPEVTCVVVDLDPEDPEVQISWFVDGKQMQTAKTQPREEQFKGTYRVVSVLPIGHQDWLKGKQFTCKVNNKALPSPIERTISKARGQAHQPSVYVLPPSREELSKNTVSLTCLIKDFFPPDIDVEWQSNGQQEPESKYRTTPPQLDEDGSYFLYSKLSVDKSRWQRGDTFICAVMHEALHNHYTQESLSHSPG
notes: non-glycosylated
[1]
  OD450nm: 0.126
  OD450nm minus assay background: 0.063
  ratio to SEQ ID NO: 36: 0.2

B2: insulin-Fc fusion protein of SEQ ID NO: 44 (Fc fusion)
chain: FVNQHLCGSHLVQALYLVCGERGFFYTDPTGGGPRRGIVEQCCTSICSLYQLENYCGGGGAGGGGDCPKCPAPEMLGGPSVFIFPPKPKDTLLIARTPEVTCVVVDLDPEDPEVQISWFVDGKQMQTAKTQPREEQFSGTYRVVSVLPIGHQDWLKGKQFTCKVNNKALPSPIERTISKARGQAHQPSVYVLPPSREELSKNTVSLTCLIKDFFPPDIDVEWQSNGQQEPESKYRTTPPQLDEDGSYFLYSKLSVDKSRWQRGDTFICAVMHEALHNHYTQESLSHSPG
[2]
  IC50: 2.62 µM

B3: insulin-Fc fusion protein of SEQ ID NO: 45 (Fc fusion)
chain: FVNQHLCGSELVEALALVCGERGFFYTDPTGGGPRRGIVEQCCTSICSLYQLENYCGGGGAGGGGDCPKCPAPEMLGGPSVFIFPPKPKDTLLIARTPEVTCVVVDLDPEDPEVQISWFVDGKQMQTAKTQPREEQFSGTYRVVSVLPIGHQDWLKGKQFTCKVNNKALPSPIERTISKARGQAHQPSVYVLPPSREELSKNTVSLTCLIKDFFPPDIDVEWQSNGQQEPESKYRTTPPQLDEDGSYFLYSKLSVDKSRWQRGDTFICAVMHEALHNHYTQESLSHSPG
[2]
  IC50: 0.633 µM

B4: insulin-Fc fusion protein of SEQ ID NO: 47 (Fc fusion)
chain: FVNQHLCGSHLVEALALVCGERGFYYTDPTGGGPRRGIVEQCCTSICSLYQLENYCGGGGAGGGGDCPKCPAPEMLGGPSVFIFPPKPKDTLLIARTPEVTCVVVDLDPEDPEVQISWFVDGKQMQTAKTQPREEQFSGTYRVVSVLPIGHQDWLKGKQFTCKVNNKALPSPIERTISKARGQAHQPSVYVLPPSREELSKNTVSLTCLIKDFFPPDIDVEWQSNGQQEPESKYRTTPPQLDEDGSYFLYSKLSVDKSRWQRGDTFICAVMHEALHNHYTQESLSHSPG
[2]
  IC50: 2.4 µM

B5: insulin-Fc fusion protein of SEQ ID NO: 52 (Fc fusion)
chain: FVNQHLCGSHLVEALALVCGERGFFYTPGGGGGGGGGIVEQCCTSICSLYQLENYCGGGGAGGGGDCPKCPAPEMLGGPSVFIFPPKPKDTLLIARTPEVTCVVVDLDPEDPEVQISWFVDGKQMQTAKTQPREEQFSGTYRVVSVLPIGHQDWLKGKQFTCKVNNKALPSPIERTISKARGQAHQPSVYVLPPSREELSKNTVSLTCLIKDFFPPDIDVEWQSNGQQEPESKYRTTPPQLDEDGSYFLYSKLSVDKSRWQRGDTFICAVMHEALHNHYTQESLSHSPG
[3]
  IC50: 4.72 µM
[4]
  IC50: 1.93 µM

B6: insulin-Fc fusion protein of SEQ ID NO: 54 (Fc fusion)
chain: FVNQHLCGSHLVEALALVCGERGFFYTQGGGGGGGGGIVEQCCTSICSLYQLENYCGGGGAGGGGDCPKCPAPEMLGGPSVFIFPPKPKDTLLIARTPEVTCVVVDLDPEDPEVQISWFVDGKQMQTAKTQPREEQFSGTYRVVSVLPIGHQDWLKGKQFTCKVNNKALPSPIERTISKARGQAHQPSVYVLPPSREELSKNTVSLTCLIKDFFPPDIDVEWQSNGQQEPESKYRTTPPQLDEDGSYFLYSKLSVDKSRWQRGDTFICAVMHEALHNHYTQESLSHSPG
[4]
  IC50: 2.19 µM

B7: insulin-Fc fusion protein of SEQ ID NO: 49 (Fc fusion)
chain: FVNQHLCGSHLVQALYLVCGERGFFYTDPTQRGGGGGQRGIVEQCCTSICSLYQLENYCGGGGAGGGGDCPKCPAPEMLGGPSVFIFPPKPKDTLLIARTPEVTCVVVDLDPEDPEVQISWFVDGKQMQTAKTQPREEQFSGTYRVVSVLPIGHQDWLKGKQFTCKVNNKALPSPIERTISKARGQAHQPSVYVLPPSREELSKNTVSLTCLIKDFFPPDIDVEWQSNGQQEPESKYRTTPPQLDEDGSYFLYSKLSVDKSRWQRGDTFICAVMHEALHNHYTQESLSHSPG
[3]
  IC50: 4.18 µM

B8: insulin-Fc fusion protein of SEQ ID NO: 50 (Fc fusion)
chain: FVNQHLCGSHLVEALALVCGERGFFYTDPTGGGGGGSGGGGGIVEQCCTSICSLYQLENYCGGGGAGGGGDCPKCPAPEMLGGPSVFIFPPKPKDTLLIARTPEVTCVVVDLDPEDPEVQISWFVDGKQMQTAKTQPREEQFSGTYRVVSVLPIGHQDWLKGKQFTCKVNNKALPSPIERTISKARGQAHQPSVYVLPPSREELSKNTVSLTCLIKDFFPPDIDVEWQSNGQQEPESKYRTTPPQLDEDGSYFLYSKLSVDKSRWQRGDTFICAVMHEALHNHYTQESLSHSPG
[3]
  IC50: 1.61 µM

B9: insulin-Fc fusion protein of SEQ ID NO: 51 (Fc fusion)
chain: FVNQHLCGSHLVEALALVCGERGFFYTDPGGGGGGGGGIVEQCCTSICSLYQLENYCGGGGAGGGGDCPKCPAPEMLGGPSVFIFPPKPKDTLLIARTPEVTCVVVDLDPEDPEVQISWFVDGKQMQTAKTQPREEQFSGTYRVVSVLPIGHQDWLKGKQFTCKVNNKALPSPIERTISKARGQAHQPSVYVLPPSREELSKNTVSLTCLIKDFFPPDIDVEWQSNGQQEPESKYRTTPPQLDEDGSYFLYSKLSVDKSRWQRGDTFICAVMHEALHNHYTQESLSHSPG
[4]
  IC50: 1.92 µM

B10: insulin-Fc fusion protein of SEQ ID NO: 55 (Fc fusion)
chain: FVNQHLCGSHLVEALELVCGERGFFYTPKTGGSGGGGGIVEQCCTSTCSLDQLENYCGGGGGQGGGGQGGGGQGGGGGDCPKCPAPEMLGGPSVFIFPPKPKDTLLIARTPEVTCVVVDLDPEDPEVQISWFVDGKQMQTAKTQPREEQFNGTYRVVSVLPIGHQDWLKGKQFTCKVNNKALPSPIERTISKARGQAHQPSVYVLPPSREELSKNTVSLTCLIKDFFPPDIDVEWQSNGQQEPESKYRTTPPQLDEDGSYFLYSKLSVDKSRWQRGDTFICAVMHEALHNHYTQESLSHSPG
[3]
  IC50: 3.87 µM

B11: insulin-Fc fusion protein of SEQ ID NO: 57 (Fc fusion)
chain: FVNQHLCGSHLVEALELVCGERGFFYGGGGGGSGGGGGIVEQCCTSTCSLDQLENYCGGGGGQGGGGQGGGGQGGGGGDCPKCPAPEMLGGPSVFIFPPKPKDTLLIARTPEVTCVVVDLDPEDPEVQISWFVDGKQMQTAKTQPREEQFNGTYRVVSVLPIGHQDWLKGKQFTCKVNNKALPSPIERTISKARGQAHQPSVYVLPPSREELSKNTVSLTCLIKDFFPPDIDVEWQSNGQQEPESKYRTTPPQLDEDGSYFLYSKLSVDKSRWQRGDTFICAVMHEALHNHYTQESLSHSPG
[3]
  IC50: 2.04 µM

B12: insulin-Fc fusion protein of SEQ ID NO: 56 (Fc fusion)
chain: FVNQHLCGSHLVEALELVCGERGFHYGGGGGGSGGGGGIVEQCCTSTCSLDQLENYCNHGGGGQGGGGQGGGGQGGGGGDCPKCPAPEMLGGPSVFIFPPKPKDTLLIARTPEVTCVVVDLDPEDPEVQISWFVDGKQMQTAKTQPREEQFNGTYRVVSVLPIGHQDWLKGKQFTCKVNNKALPSPIERTISKARGQAHQPSVYVLPPSREELSKNTVSLTCLIKDFFPPDIDVEWQSNGQQEPESKYRTTPPQLDEDGSYFLYSKLSVDKSRWQRGDTFICAVMHEALHNHYTQESLSHSPG
notes: Combined variant, canine IgGB Fc with native cNg
[3]
  IC50: 0.554 µM

B13: insulin-Fc fusion protein of SEQ ID NO: 28 (Fc fusion)
chain: FVNQHLCGSHLVEALELVCGERGFHYGGGGGGSGGGGGIVEQCCTSTCSLDQLENYCNGGGGGQGGGGQGGGGQGGGGGDCPKCPAPEMLGGPSVFIFPPKPKDTLLIARTPEVTCVVVDLDPEDPEVQISWFVDGKQMQTAKTQPREEQFNGTYRVVSVLPIGHQDWLKGKQFTCKVNNKALPSPIERTISKARGQAHQPSVYVLPPSREELSKNTVSLTCLIKDFFPPDIDVEWQSNGQQEPESKYRTTPPQLDEDGSYFLYSKLSVDKSRWQRGDTFICAVMHEALHNHYTQESLSHSPG
[3]
  IC50: 1.25 µM
